Numbering of substitutions follows the chain as printed. Numbers in names are those of the source.
B1: V213C + A215L + Y422M: ApPPO1 (SEQ ID NO: 1) variant (protein)
chain: MPFTHLKPLNRLLGSPRARHPHVAPQAVSVTNTSTTRPGGRSSAPGIPGDAEYDVVIVGAGISGLTTAQALAKQYSDAVPRLLVTEARDCVGGNIITRRDGGYQWEEGPNSFQPSDAVLRAAVDAGVADRLVLGDPKAPRYVYWGGRLRATPSGPDVLTFDLLSLWGKLRAGLGAAGFKAPLPEREESVKEFVTRNLGEEVFQRLIEPFCSGCYLGDPAKLSMKAAFGKVYDLEKGGGSIVGGVLALMKARKQKPPEPRPADLPPKPKGQTVGSFDKGLVTLPSAIAEELGDRVVTGWKLESIDRSGDRFQLTYDTPQGRKKVSARSVALTVPAYTAASLLESRFPKLGKALSSIYYPPVASVALSYPETAILPERLGSDGHLAGFGQLHPRTQGVTTLGTIYASSLFPGRVPEGKVLLLSMFGGATNTRVATMPHGEIVSQVDKDLRKMLIRSDAESPHTVNVTVWPRAIPQFNVGHTDLIQEAKDDLASQGWQGLHLGGNYVAGVALGKCMEAGYKQAAELASHVKSLAT
modifications: Synthetic (Protoporphyrinogen IX oxidase (ApPPO1) of Auxenochlorella protothecoides)
B2: R140A + V213C + A215C + Y422I: ApPPO1 (SEQ ID NO: 1) variant (protein)
chain: B1 chain with R140A, L215C, M422I
modifications: Synthetic (Protoporphyrinogen IX oxidase (ApPPO1) of Auxenochlorella protothecoides)
B3: R140A + Y422T: ApPPO1 (SEQ ID NO: 1) variant (protein)
chain: B1 chain with R140A, C213V, L215A, M422T
modifications: Synthetic (Protoporphyrinogen IX oxidase (ApPPO1) of Auxenochlorella protothecoides)
B4: V213C + Y422I: ApPPO1 (SEQ ID NO: 1) variant (protein)
chain: B1 chain with L215A, M422I
modifications: Synthetic (Protoporphyrinogen IX oxidase (ApPPO1) of Auxenochlorella protothecoides)
B5: R140A + Y422I: ApPPO1 (SEQ ID NO: 1) variant (protein)
chain: B1 chain with R140A, C213V, L215A, M422I
modifications: Synthetic (Protoporphyrinogen IX oxidase (ApPPO1) of Auxenochlorella protothecoides)
B6: R140A + V213C + A215L + Y422M: ApPPO1 (SEQ ID NO: 1) variant (protein)
chain: B1 chain with R140A
modifications: Synthetic (Protoporphyrinogen IX oxidase (ApPPO1) of Auxenochlorella protothecoides)
B7: V164A: MxPPO (SEQ ID NO: 3) variant (protein)
chain: MHHMPRTTGMNVAVVGGGISGLAVAHHLRSRGTDAVLLESSARLGGAVGTHALAGYLVEQGPNSFLDREPATRALAAALNLEGRIRAADPAAKRRYVYTRGRLRSVPASPPAFLASDILPLGARLRVAGELFSRRAPEGVDESLAAFGRRHLGHRATQVLLDAAQTGIYAGDVEQLSVAATFPMLVKMEREHRSLILGAIRAQKAQRQAALPAGTAPKLSGALSTFDGGLQVLIDALAASLGDAAHVGARVEGLAREDGGWRLIIEEHGRRAELSVAQVVLAAPAHATAKLLRPLDDALAALVAGIAYAPIAVVHLGFDAGTLPAPDGFGFLVPAEEQRRMLGAIHASTTFPFRAEGGRVLYSCMVGGARQPGLVEQDEDALAALAREELKALAGVTARPSFTRVFRWPLGIPQYNLGHLERVAAIDAALQRLPGLHLIGNAYKGVGLNDCIRNAAQLADALVAGNTSHAP
modifications: Synthetic (Protoporphyrinogen IX oxidase (MxPPO) of Myxococcus xanthus)
B8: M365I: MxPPO (SEQ ID NO: 3) variant (protein)
chain: B7 chain with A164V, M365I
modifications: Synthetic (Protoporphyrinogen IX oxidase (MxPPO) of Myxococcus xanthus)
B9: L332T: MxPPO (SEQ ID NO: 3) variant (protein)
chain: B7 chain with A164V, L332T
modifications: Synthetic (Protoporphyrinogen IX oxidase (MxPPO) of Myxococcus xanthus)
B10: F329V: MxPPO (SEQ ID NO: 3) variant (protein)
chain: B7 chain with A164V, F329V
modifications: Synthetic (Protoporphyrinogen IX oxidase (MxPPO) of Myxococcus xanthus)
B11: I345T: MxPPO (SEQ ID NO: 3) variant (protein)
chain: B7 chain with A164V, I345T
modifications: Synthetic (Protoporphyrinogen IX oxidase (MxPPO) of Myxococcus xanthus)
B12: I168C: MxPPO (SEQ ID NO: 3) variant (protein)
chain: B7 chain with A164V, I168C
modifications: Synthetic (Protoporphyrinogen IX oxidase (MxPPO) of Myxococcus xanthus)
B13: A170C: MxPPO (SEQ ID NO: 3) variant (protein)
chain: B7 chain with A164V, A170C
modifications: Synthetic (Protoporphyrinogen IX oxidase (MxPPO) of Myxococcus xanthus)

What was measured:
ApPPO1 = test: Herbicide tolerance test of ApPPO1 wild type and variants in PPO-deficient E. coli BT3(ΔPPO), growth on herbicide-containing LB agar; type: cell-based, Auxenochlorella protothecoides; details: relative to ApPPO1 WT, dark; for Herbicide tolerance, flumioxazin: up to 100 μM (FIGS. 7-12); for Herbicide tolerance, tiafenacil: up to 200 μM (FIGS. 7-12); for Herbicide tolerance, sulfentrazone: up to 400 μM (FIGS. 7-12)
Procedure: Then, the extent of tolerance was evaluated.

MxPPO = test: PPO enzyme activity of purified MBP-fused MxPPO wild type and variants; type: biochemical, Myxococcus xanthus; details: PPO enzyme activity of purified MxPPO protein, relative to wild type
Procedure: Thus, PPO proteins of wild type and variants were expressed as fused to MBP and were used for experiments.
The following process for purification of PPO protein was performed in a 4° C. cold room. […] The column was washed with 3 column volumes of buffer and the presence of protein in the washing solution was examined. When the protein was no longer detected, the washing procedure was terminated. Then, the MBP-PPO protein was eluted with approximately 2 column volumes of buffer containing 20 mM maltose. The protein concentration of each eluent was determined and the elution was stopped when the protein was no longer detected. Ten microliter of each fraction was investigated for protein quantification and SDS-PAGE analysis. The highly pure fractions of PPO protein variants were used for the enzyme assay.
Since protoporphyrinogen IX, a substrate of PPO protein, was not commercially available, it was chemically synthesized in the laboratory. Overall process was performed in dark under nitrogen stream. […] of protoporphyrin IX was dissolved in 20 ml of 20% (v/v) EtOH, and stirred under dark condition for 30 minutes. The obtained protoporphyrin IX solution was put into a 15 ml screw tube in an amount of 800 μl, and flushed with nitrogen gas for 5 minutes. To this, 1.5 g of sodium amalgam was added and vigorously shaken for 2 minutes. The lid was opened to exhaust hydrogen gas in the tube. Thereafter, the lid was closed and incubated for 3 minutes. The protoporphyrinogen IX solution was filtered using syringe and cellulose membrane filter. To 600 μl of the obtained protoporphyrinogen IX solution, approximately 300 μl of 2M MOPS [3-(N-morpholino) propanesulfonic acid] was added to adjust pH to 8.0. To determine the enzyme activity of PPO protein, a reaction mixture was prepared with the following composition (based on 10 ml): 50 mM Tris-Cl (pH 8.0); 50 mM NaCl; 0.04% (v/v) Tween 20; 40 mM glucose (0.072 g); 5 units glucose oxidase (16.6 mg); and 10 units catalase (1 μl).
Hundred and eighty microliters of a reaction mixture […] were placed in 96 well plates and 20 μl of purified PPO proteins were added. After 50 μl of the mineral oil was layered, the reaction was initiated by adding the substrate, protoporphyrinogen IX solution, to a final concentration of 50 μM. The reaction proceeded at room temperature for 30 min and the fluorescence of protoporphyrin IX was measured using Microplate reader (Sense, Hidex) (excitation: 405 nm; emission: 633 nm). To calculate the PPO enzyme activity, the protoporphyrinogen IX solution was kept open in the air overnight to oxidize the solution. To this, 2.7 N HCl was added, and the absorbance at 408 nm was measured. A standard curve was generated using standard protoporphyrin IX, and PPO activity was measured by calibration of protoporphyrin IX using the standard curve of protoporphyrin IX.
Activities of variants were presented relatively compared to that of wild type.

| Molecule | Herbicide tolerance, flumioxazin (ApPPO1) | Herbicide tolerance, tiafenacil (ApPPO1) | Herbicide tolerance, sulfentrazone (ApPPO1) | Activity (%) (MxPPO) |
| --- | --- | --- | --- | --- |
| B1 | +++++ (more than 10,000 fold higher tolerance) | +++++ (more than 10,000 fold higher tolerance) | ++++ (1,000-9,999 fold higher tolerance) |  |
| B2 | +++++ (more than 10,000 fold higher tolerance) | +++++ (more than 10,000 fold higher tolerance) | ++++ (1,000-9,999 fold higher tolerance) |  |
| B3 | ++++ (1,000-9,999 fold higher tolerance) | ++++ (1,000-9,999 fold higher tolerance) | +++ (100-999 fold higher tolerance) |  |
| B4 | +++++ (more than 10,000 fold higher tolerance) | ++++ (1,000-9,999 fold higher tolerance) | +++ (100-999 fold higher tolerance) |  |
| B5 | +++++ (more than 10,000 fold higher tolerance) | +++++ (more than 10,000 fold higher tolerance) | ++++ (1,000-9,999 fold higher tolerance) |  |
| B6 | +++++ (more than 10,000 fold higher tolerance) | +++++ (more than 10,000 fold higher tolerance) | ++++ (1,000-9,999 fold higher tolerance) |  |
| B7 |  |  |  | 75 |
| B8 |  |  |  | 82 |
| B9 |  |  |  | 87 |
| B10 |  |  |  | 91 |
| B11 |  |  |  | 33 |
| B12 |  |  |  | 47 |
| B13 |  |  |  | 86 |

Reference: patent publication US20220042033A1, “COMPOSITION AND METHOD FOR CONFERRING AND/OR ENHANCING TOLERANCE AGAINST HERBICIDES BY USING VARIANTS OF PPO” (FarmHannong Co., Ltd., priority 2017, published 2022)
